{"source": "paper PMC9581579", "about": "(2022)", "binders": {"B1": {"name": "HMT-Gpsm2 (His6-MBP-TEV site-Gpsm2) (natural protein)", "chain": "MEENLISMREDHSFHVRYRMEASCLELALEGERLCKSGDCRAGVSFFEAAVQVGTEDLKTLSAIYSQLGNAYFYLHDYAKALEYHHHDLTLARTIGDQLGEAKASGNLGNTLKVLGNFDEAIVCCQRHLDISRELNDKVGEARALYNLGNVYHAKGKSFGCPGPQDVGEFPEEVRDALQAAVDFYEENLSLVTALGDRAAQGRAFGNLGNTHYLLGNFRDAVIAHEQRLLIAKEFGDKAAERRAYSNLGNAYIFLGEFETASEYYKKTLLLARQLKDRAVEAQSCYSLGNTYTLLQDYEKAIDYHLKHLAIAQELNDRIGEGRACWSLGNAYTALGNHDQAMHFAEKHLEISREVGDKSGELTARLNLSDLQMVLGLSYSTNNSIMSENTEIDSSLNGVRPKLGRRHSMENMELMKLTPEKVQNWNSEILAKQKPLIAKPSAKLLFVNRLKGKKYKTNSSTKVLQDASNSIDHRIPNSQRKISADTIGDEGFFDLLSRFQSNRMDDQRCCLQEKNCHTASTTTSSTPPKMMLKTSSVPVVSPNTDEFLDLLASSQSRRLDDQRASFSNLPGLRLTQNSQSVLSHLMTNDNKEADEDFFDILVKCQGSRLDDQRCAPPPATTKGPTVPDEDFFSLILRSQGKRMDEQRVLLQRDQNRDTDFGLKDFLQNNALLEFKNSGKKSADH"}}, "key": {"[1]": {"target": "T1, His-Avi-Trx-Frmpd1-pept (Frmpd1 residues 895–938) (UniProt A2AKB4 895-938, not fully specified; biotin (biotinylated in E. coli by native BirA ligase))", "T1 chain": "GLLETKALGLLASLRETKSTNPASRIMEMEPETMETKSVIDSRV", "experiment": "BLI"}, "[2]": {"target": "T1, His-Avi-Trx-Frmpd1-pept (Frmpd1 …)", "experiment": "BLI; in the presence of Gαt*"}}}
{"binder": "B1", "values": [{"measurement": "Kd", "setting": "[1]", "value": 286, "unit": "nM"}, {"measurement": "Kd", "setting": "[2]", "value": 198, "unit": "nM"}]}
